The values that follow come from the supplement of paper PMC10567573.

A short description of this series: protein stability index of a GFP-peptide fusion (GPS, HEK-293T) (PSI 1-6); higher = more stable.
Setting [1] is: parent: NP_006221.1, c terminus: native.
The mark [2] stands for this setting: parent: NP_015628.1, c terminus: native.
Setting [3] is: parent: NP_002788.1, c terminus: native.
[4] abbreviates: parent: NP_009172.2, c terminus: native.

B1: ADAMTS4 WT (peptide)
chain: HVDPEEPWSPCSARFITDFLDNGY
As to B1, for the setting “parent: IOH81847_67, c terminus: a fixed tail appended”, the protein stability index worked out at 1.84.

B2: POLD2 WT (peptide)
chain: CQPISFSGFGAEDDDLGGLGLGP
B2: the protein stability index under setting [1] came out at 2.27.

B3: PTPN9 WT (peptide)
chain: IDFLRVVRNQQSLAVSNMGARSKG
With B3, the protein stability index (parent: IOH82149_81, c terminus: a fixed tail appended) stood at 2.4.

B4: PTPRD WT (peptide)
chain: LTKLREMGREKCHQYWPAERSARY
For the protein B4, the protein stability index (parent: IOH82190_223, c terminus: a fixed tail appended) turned out to be 2.36.

B5: CSNK1G1 WT (peptide)
chain: GSLPWQGLKADTLKERYQKIGDTK
As for B5, the protein stability index (parent: IOH82133_42, c terminus: a fixed tail appended) stood at 4.1.

B6: PPFIA4 WT (peptide)
chain: PGVHRRYSALREESAKDWETSPLP
For B6, where the note is “parent: IOH82170_4, c terminus: a fixed tail appended”, the protein stability index is 4.19.

B7: CDKL4 WT (peptide)
chain: AVKKFVESEDDPVVKKIALREIRM
For the protein B7, where the note is “parent: IOH82195_6, c terminus: a fixed tail appended”, the protein stability index worked out at 2.87.

B8: RIPK4 WT (peptide)
chain: RERMELLEEAKKMEMAKFRYILPV
On to B8, for which the protein stability index (parent: IOH82264_11, c terminus: a fixed tail appended) was determined as 2.38.

B9: MATN2 WT (peptide)
chain: FIVDILQFLDIGPDVTRVGLLQYG
With B9, the protein stability index (parent: IOH81883_14, c terminus: a fixed tail appended) was 2.92.

B10: TRPA1 WT (peptide)
chain: EQRNSRWNTVLRAVKAKTHHLEP
As for B10, the protein stability index under setting [2] is 3.03.

B11: LOXL2 WT (peptide)
chain: YVEVKEGKTWKQICDKHWTAKNSR
Take B11: under “parent: IOH81790_35, c terminus: a fixed tail appended”, the protein stability index came to 2.24.

B12: PPFIA4 WT (peptide)
chain: VMTLPSDLRKHRRKLLSPVSREEN
Regarding B12, under “parent: IOH82170_31, c terminus: a fixed tail appended”, the protein stability index came out at 3.53.

B13: TRPA1 addA (peptide)
chain: EQRNSRWNTVLRAVKAKTHHLEPA
On to B13, for which, under setting [2], the protein stability index is 4.26.

B14: PTPRD WT (peptide)
chain: FICQATGDPRPKIVWNKKGKKVSN
For B14, under “parent: IOH82190_8, c terminus: a fixed tail appended”, the protein stability index amounted to 2.13.

B15: PSMB5 WT (peptide)
chain: DGWIRVSSDNVADLHEKYSGSTP
On to B15, for which the protein stability index under setting [3] amounted to 2.42.

B16: PTPRD WT (peptide)
chain: ELDELLKEISRKRRSIRYGREVEL
With B16, where the note is “parent: IOH82190_126, c terminus: a fixed tail appended”, the protein stability index was found to be 2.18.

B17: LOXL2 WT (peptide)
chain: RLLRFSSQIHNNGQSDFRPKNGRH
For B17, the protein stability index (parent: IOH81790_100, c terminus: a fixed tail appended) was 2.72.

B18: TNXB WT (peptide)
chain: LLQRELMVPGTRHSAVLRDLRSGT
Consider B18, for which the protein stability index (parent: IOH81617_23, c terminus: a fixed tail appended) came to 2.54.

B19: POLD2 addT (peptide)
chain: CQPISFSGFGAEDDDLGGLGLGPT
In the case of B19, the protein stability index under setting [1] is 2.6.

B20: MATN2 WT (peptide)
chain: TDDSYSCHCLKGFTLNPDKKTCRR
In the case of B20, the protein stability index (parent: IOH81883_64, c terminus: a fixed tail appended) came out at 2.25.

B21: SMOC2 WT (peptide)
chain: DCAGSPQKPLCASDGRTFLSRCEF
Take B21: for the setting “parent: IOH81799_8, c terminus: a fixed tail appended”, the protein stability index stood at 2.54.

B22: ADAMTS4 WT (peptide)
chain: SFRKFRYGYNNVVTIPAGATHILV
Regarding B22, the protein stability index (parent: IOH81847_116, c terminus: a fixed tail appended) amounted to 2.6.

B23: PTPN9 WT (peptide)
chain: NKWTVQYNVSPLSWNVAVKFLMAR
Regarding B23, for the setting “parent: IOH82149_6, c terminus: a fixed tail appended”, the protein stability index turned out to be 2.09.

B24: RIPK4 WT (peptide)
chain: VIDLFDEQGLSALHLAAQGRHAQT
With B24, under “parent: IOH82264_122, c terminus: a fixed tail appended”, the protein stability index came to 2.72.

B25: RIPK4 WT (peptide)
chain: AAWQGHLPIVKLLAKQPGVSVNAQ
B25: the protein stability index (parent: IOH82264_97, c terminus: a fixed tail appended) was 2.35.

B26: TRIB1 WT (peptide)
chain: SYVRSRKRLREEEAARLFKQIVSA
As for B26, the protein stability index (parent: IOH82269_29, c terminus: a fixed tail appended) turned out to be 2.13.

B27: PSMB5 addA (peptide)
chain: DGWIRVSSDNVADLHEKYSGSTPA
In the case of B27, the protein stability index under setting [3] is 2.51.

B28: PSMB5 addT (peptide)
chain: DGWIRVSSDNVADLHEKYSGSTPT
With B28, the protein stability index under setting [3] stood at 3.53.

B29: PPEF2 WT (peptide)
chain: AFKAAALIQRWYRRYVARLEMRRR
Turning to B29, the protein stability index (parent: IOH82202_4, c terminus: a fixed tail appended) worked out at 3.14.

B30: RIPK4 WT (peptide)
chain: VSVNAQTLDGRTPLHLAAQRGHYR
B30: the protein stability index (parent: IOH82264_100, c terminus: a fixed tail appended) was 3.37.

B31: PTPN9 WT (peptide)
chain: LKGAFPARLKKVLIVGAPIWFRVP
For B31, the protein stability index (parent: IOH82149_30, c terminus: a fixed tail appended) is 2.96.

B32: MATN2 WT (peptide)
chain: FSLKTFKRKSEVERAVKRMRHLST
For the protein B32, the protein stability index (parent: IOH81883_19, c terminus: a fixed tail appended) was 2.06.

B33: SMOC2 WT (peptide)
chain: QKPLCASDGRTFLSRCEFQRAKCK
B33: the protein stability index (parent: IOH81799_9, c terminus: a fixed tail appended) is 2.71.

B34: EMID1 WT (peptide)
chain: FTETNNHWPQGPTGPPGPPGPMGP
Regarding B34, where the note is “parent: IOH81855_48, c terminus: a fixed tail appended”, the protein stability index was found to be 2.31.

B35: SNF8 addA (peptide)
chain: LPALFTDLYSQEITAEEAREALPA
For the protein B35, the protein stability index under setting [4] worked out at 3.42.

B36: PTPN9 WT (peptide)
chain: ILFSLPPALDWDSVHVPGPHAMTI
B36: the protein stability index (parent: IOH82149_45, c terminus: a fixed tail appended) turned out to be 2.54.

B37: PPEF2 WT (peptide)
chain: DHSGFISLDEFRQTWKLFSSHMNI
As to B37, where the note is “parent: IOH82202_112, c terminus: a fixed tail appended”, the protein stability index turned out to be 1.7.

B38: SMOC2 WT (peptide)
chain: PALETQPQGDEEDIASRYPTLWTE
With B38, the protein stability index (parent: IOH81799_32, c terminus: a fixed tail appended) amounted to 4.26.

B39: MATN2 WT (peptide)
chain: VNVPGSFVCQCYSGYALAEDGKRC
Turning to B39, the protein stability index (parent: IOH81883_50, c terminus: a fixed tail appended) is 1.99.

B40: LOXL2 WT (peptide)
chain: FSPDGPSRFRKAYKPEQPLVRLRG
For B40, the protein stability index (parent: IOH81790_52, c terminus: a fixed tail appended) was 1.81.

B41: POLD2 addA (peptide)
chain: CQPISFSGFGAEDDDLGGLGLGPA
Regarding B41, the protein stability index under setting [1] is 2.54.

B42: PTPN9 WT (peptide)
chain: TQHLPRECLPENLGGYVKIDLATW
On to B42, for which, where the note is “parent: IOH82149_38, c terminus: a fixed tail appended”, the protein stability index amounted to 1.88.

B43: PTPRD WT (peptide)
chain: MVHVARLLLLLLTFFLRTDAETPP
As for B43, under “parent: IOH82190_1, c terminus: a fixed tail appended”, the protein stability index turned out to be 2.92.

B44: TRIB1 WT (peptide)
chain: EIGTSDQIVPEYQEDSDISSFFC
Take B44: the protein stability index (parent: IOH82269_63, c terminus: native) came to 2.87.

B45: PPEF2 WT (peptide)
chain: FIPSSHNDRDFLTRIFTEDRFAQD
As for B45, the protein stability index (parent: IOH82202_13, c terminus: a fixed tail appended) worked out at 2.05.

B46: PTPRD WT (peptide)
chain: ITWFKDFLPVDTSNNNGRIKQLRS
Take B46: the protein stability index (parent: IOH82190_27, c terminus: a fixed tail appended) stood at 1.83.

B47: SNF8 addT (peptide)
chain: LPALFTDLYSQEITAEEAREALPT
In the case of B47, the protein stability index under setting [4] was 3.79.

B48: TNXB WT (peptide)
chain: FSEIRETSAKVNWMPPPSRADSFK
Consider B48, for which the protein stability index (parent: IOH81617_33, c terminus: a fixed tail appended) was 3.45.

B49: PPFIA4 WT (peptide)
chain: YAGNLHESGVHGALLALDENFDHN
With B49, for the setting “parent: IOH82170_95, c terminus: a fixed tail appended”, the protein stability index amounted to 2.51.

B50: LOXL2 WT (peptide)
chain: HISSCKLGPQVSLDPMKNVTCENG
As for B50, the protein stability index (parent: IOH81790_46, c terminus: a fixed tail appended) worked out at 3.95.

B51: NFE2L1 WT (peptide)
chain: TLDGYGIHPKSIDLDNYFTARRLL
As for B51, the protein stability index (parent: IOH81649_11, c terminus: a fixed tail appended) turned out to be 1.93.

B52: SNF8 WT (peptide)
chain: LPALFTDLYSQEITAEEAREALP
In the case of B52, the protein stability index under setting [4] came out at 2.74.

B53: PTPRD WT (peptide)
chain: PVVSMDLDPQPITDEEEGLIWVVG
B53: the protein stability index (parent: IOH82190_140, c terminus: a fixed tail appended) amounted to 3.88.
